The text below walks through data of publication PMC6072280 (Nuclear medicine and biology, 2018).

In general, tissue uptake refers to the share of the injected amount in each gram of the tissue.

One series deals with GRPR (Homo sapiens, UniProt P30550). Particulars: GRPR-expressing human PC-3 cells, 125I-[Tyr4]-BBN, 1 h 37°C.
Series [1] deals with PC-3 tumor-bearing SCID mice.
A further series is described as follows: in vivo. Particulars: male, ICR-SCID, mouse, iv, total radioactivity; for tissue uptake at 1 h / tissue uptake at 4 h / tissue uptake at 24 h: 20 μCi.

Chain of GRPR (P30550 whole entry): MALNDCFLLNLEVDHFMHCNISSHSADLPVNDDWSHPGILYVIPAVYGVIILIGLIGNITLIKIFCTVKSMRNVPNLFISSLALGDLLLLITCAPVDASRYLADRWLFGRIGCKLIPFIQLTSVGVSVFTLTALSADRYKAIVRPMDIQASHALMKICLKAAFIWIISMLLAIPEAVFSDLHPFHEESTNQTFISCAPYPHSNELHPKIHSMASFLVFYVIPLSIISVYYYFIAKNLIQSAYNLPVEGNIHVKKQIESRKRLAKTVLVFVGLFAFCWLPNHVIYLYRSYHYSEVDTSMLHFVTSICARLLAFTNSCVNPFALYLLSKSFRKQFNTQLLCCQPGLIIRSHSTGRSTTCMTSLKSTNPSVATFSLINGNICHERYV

Regarding `CC(C)C[C@H](NC(=O)C[C@H](O)[C@H](CC(C)C)NC(=O)[C@H](Cc1c[nH]cn1)NC(=O)CNC(=O)[C@@H](NC(=O)[C@H](C)NC(=O)[C@H](Cc1c[nH]c2ccccc12)NC(=O)[C@H](CCC(N)=O)NC(=O)[C@@H](Cc1ccccc1)NC(=O)CCCCCNC(=O)[C@H](CCC(=O)NCCCC[C@@H]1NC(=O)[C@@H](Cc2ccc(O)cc2)NC(=O)[C@H](CC(=O)O)NC(=O)CNC(=O)[C@H](CCCNC(=N)N)NC1=O)NC(=O)CN1CCN(CC(=O)O)CCN(CC(=O)O)CCN(CC(=O)O)CC1)C(C)C)C(N)=O` [[RGD-Glu-[DO3A]-6-Ahx-RM2]] [[Cyclo-(Arg-Gly-Asp-DTyr-Lys)-(DO3A)-Glu-(6-Ahx-D-Phe-Gln-Trp-Ala-Val-Gly-His-Sta-Leu-NH2)]], at GRPR, the “IC50, PC-3” value is reported as “single-digit, nanomolar range”.

In the case of `CC(C)C[C@H](NC(=O)C[C@H](O)[C@H](CC(C)C)NC(=O)[C@H](Cc1c[nH]cn1)NC(=O)CNC(=O)[C@@H](NC(=O)[C@H](C)NC(=O)[C@H](Cc1c[nH]c2ccccc12)NC(=O)[C@H](CCC(N)=O)NC(=O)[C@@H](Cc1ccccc1)NC(=O)CCCCCNC(=O)[C@H](CCC(=O)NCCCC[C@@H]1NC(=O)[C@@H](Cc2ccc(O)cc2)NC(=O)[C@H](CC(=O)O)NC(=O)CNC(=O)[C@H](CCCNC(=N)N)NC1=O)NC(=O)CN1CCN(CC(=O)O)CCN(CC(=O)O)CCN(CC(=O)O)CC1)C(C)C)C(N)=O` [[RGD-Glu-[[^90Y]Y-DO3A]-6-Ahx-RM2], metal not drawn], the “Biodistribution, Urine (urinary excretion)” value in series [1] (4 h p.i., i.v., n = 5) came out at 93.4 %ID. The “In vivo stability, RP-HPLC of urinary radioactivity” value in series [1] (urine collected from tumor-bearing mice) is given as “eluted with a similar retention time”. The tissue uptake at 1 h in “in vivo” (bone) amounted to 0.45 ± 0.08 %ID/g; in “in vivo” (brain), 0.03 ± 0.01 %ID/g; in “in vivo” (heart) it was 0.31 ± 0.06 %ID/g; in the series “in vivo” (kidneys), 2.36 ± 0.49 %ID/g; in “in vivo” (large intestine) it was 0.64 ± 0.12 %ID/g; in the series “in vivo” (liver), 0.39 ± 0.08 %ID/g. The tissue uptake at 1 h came to 0.8 ± 0.27 %ID/g in the series “in vivo” (lung); 0.22 ± 0.06 %ID/g in the series “in vivo” (muscle); 6.81 ± 0.92 %ID/g in the series “in vivo” (pancreas); 1.41 ± 0.32 %ID/g in the series “in vivo” (small intestine); 1.36 ± 0.25 %ID/g in the series “in vivo” (spleen); 1.19 ± 0.34 %ID/g in “in vivo” (stomach). Further, the tissue uptake at 1 h in the series “in vivo” (tumor (PC-3 xenograft)) came out at 8.7 ± 0.35 %ID/g. Also, the tissue uptake at 4 h in “in vivo” (bone) came to 0.29 ± 0.05 %ID/g; in the series “in vivo” (brain) it was 0.01 %ID/g; in “in vivo” (heart), 0.16 ± 0.05 %ID/g; in the series “in vivo” (kidneys) it was 1.54 ± 0.31 %ID/g; in “in vivo” (large intestine), 0.66 ± 0.26 %ID/g; in the series “in vivo” (liver), 0.35 ± 0.07 %ID/g. For the same compound, the tissue uptake at 4 h in “in vivo” (lung) came out at 0.44 ± 0.06 %ID/g; in “in vivo” (muscle), 0.11 ± 0.02 %ID/g; in the series “in vivo” (pancreas) it was 0.55 ± 0.12 %ID/g; in “in vivo” (small intestine) it was 0.39 ± 0.09 %ID/g; in “in vivo” (spleen) it was 1.07 ± 0.18 %ID/g; in the series “in vivo” (stomach), 0.33 ± 0.07 %ID/g. In addition, the tissue uptake at 4 h in “in vivo” (tumor (PC-3 xenograft)) stood at 4.48 ± 0.31 %ID/g. Further, the tissue uptake at 24 h in “in vivo” (bone) came out at 0.33 ± 0.12 %ID/g; in the series “in vivo” (heart), 0.15 ± 0.04 %ID/g; in the series “in vivo” (kidneys), 0.89 ± 0.21 %ID/g; in the series “in vivo” (large intestine), 0.31 ± 0.06 %ID/g; in “in vivo” (liver), 0.29 ± 0.15 %ID/g; in “in vivo” (lung), 0.37 ± 0.1 %ID/g. The tissue uptake at 24 h in the series “in vivo” (muscle) was found to be 0.1 ± 0.03 %ID/g; in the series “in vivo” (pancreas), 0.27 ± 0.05 %ID/g; in “in vivo” (small intestine), 0.34 ± 0.07 %ID/g; in “in vivo” (spleen), 1.21 ± 0.23 %ID/g; in the series “in vivo” (stomach) it was 0.22 ± 0.03 %ID/g; in the series “in vivo” (tumor (PC-3 xenograft)), 5.28 ± 0.12 %ID/g. The dose excreted at 1 h in “in vivo” (urine, 20 uCi) is 84.6 ± 3.52%. Moreover, the dose excreted at 4 h in the series “in vivo” (urine, 20 uCi) was 93.4 ± 1.26%. Further, the dose excreted at 24 h in the series “in vivo” (urine, 20 uCi) is 92.7 ± 2.06%. Besides, in “in vivo” (whole blood, 20 uCi), the tissue uptake dose at 1 h was 0.18 ± 0.04 %ID. Besides, the tissue uptake dose at 4 h in the series “in vivo” (whole blood, 20 uCi) worked out at 0.01 %ID. Moreover, the tissue uptake dose at 24 h in the series “in vivo” (whole blood, 20 uCi) stood at 0.01 %ID.
